Measurements taken from publication PMC3929599.

Tests used:
[1] = biological target: mEGFP-labelled WASp (reciprocal tagging) (Drosophila); experiment: FRET or BRET; FLIM-FRET, pixel-resolution 'Interaction' in the CNS of live Drosophila embryos at hours 15 and 21, and Polarplot estimate of the percentage of donor molecules undergoing FRET (hour not told for the percentages)
[2] = biological target: mCherry::WASp (Wiskott-Aldrich Syndrome protein labelled with mCherry at its amino terminus) (Drosophila); experiment: FRET or BRET; FLIM-FRET (3D frequency-domain FLIM): mean mEGFP donor fluorescence lifetime in a CNS segment of live whole Drosophila embryos at hour 15; both proteins expressed in all neurons under elav-GAL4; baseline lifetime without FRET 2.56 ns; 10-20 embryos for each experiment
Sequence of mCherry::WASp (Wiskott-Aldrich Syndrome protein labelled with mCherry at its amino terminus) (Drosophila) (main, as listed by the source): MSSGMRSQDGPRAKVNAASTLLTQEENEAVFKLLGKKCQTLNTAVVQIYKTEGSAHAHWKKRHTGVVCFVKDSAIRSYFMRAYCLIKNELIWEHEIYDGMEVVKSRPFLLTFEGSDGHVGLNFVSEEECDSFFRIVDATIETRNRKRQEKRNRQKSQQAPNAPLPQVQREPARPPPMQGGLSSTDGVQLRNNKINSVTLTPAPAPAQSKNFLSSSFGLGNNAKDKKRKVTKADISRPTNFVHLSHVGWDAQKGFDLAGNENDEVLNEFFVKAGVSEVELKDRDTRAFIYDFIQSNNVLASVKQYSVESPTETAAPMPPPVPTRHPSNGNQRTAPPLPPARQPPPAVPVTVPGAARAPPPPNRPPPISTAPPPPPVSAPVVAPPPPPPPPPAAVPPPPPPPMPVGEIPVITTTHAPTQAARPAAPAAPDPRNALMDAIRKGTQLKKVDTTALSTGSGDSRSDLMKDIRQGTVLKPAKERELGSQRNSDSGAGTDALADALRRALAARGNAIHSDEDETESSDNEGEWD

[3] = biological target: WASp labelled with mCherry at its carboxyl terminus (Drosophila); experiment: as above
Sequence of WASp labelled with mCherry at its carboxyl terminus (Drosophila) (main, as listed by the source): as above

[4] = biological target: mCherry::WASp (Wiskott-Aldrich Syndrome protein labelled with mCherry at its amino terminus) (Drosophila); experiment: FRET or BRET; FLIM-FRET, pixel-resolution 'Interaction' in the CNS of live Drosophila embryos at hours 15 and 21, and Polarplot estimate of the percentage of donor molecules undergoing FRET (hour not told for the percentages)

Sequence of mEGFP-labelled WASp (reciprocal tagging) (Drosophila) (main, as listed by the source): as above

mCherry-labelled Cdc42 (reciprocal tagging) (from UniProt P40793 1-191) (natural protein)
fraction of WASp interacting with Cdc42 [1]: 30%

mEGFP::Cdc42 (cell division control protein 42 homolog labelled with mEGFP) (from UniProt P40793 1-191) (natural protein)
mean donor (mEGFP) fluorescence lifetime [2]: 2.45 ns
mean donor (mEGFP) fluorescence lifetime [3]: 2.44 ns
fraction of Cdc42 interacting with WASp [4]: 10%
